A protein production outcome set (Wang et al. 2014)

Assay: label from the status in PepcDB records

MEEGPIKKKLKSAGQGSGKTDAFRNFEQFFFRLNTLYTFLICRKHVVPTFKTLCGPIETALKRTVTKEDLAMVMALMPRECVFKYIDENQIYTETKIFDFNNGGFQQKENDIFELKDVDDQNQTQKSTQLLIFEFIDGTMQRSWSASDRFSQIKIPTYTTEEMKKMISKREALFKSRLREFILEKEKANLDPFSELTNLAQKYIPRERDYEDPIEAMMKAKQESNEMSIPNYSNNSVITTIPQMIEKLKSTEFYASQIKHCFTIPSRTAKYKGLCFELAPEVYQGMEHENFYSHQADAINSLHQGENVIITTSTSSGKSLIYQLAAIDLLLKDPESTFMYIFPTKALAQDQKRAFKVILSKIPELKNAVVDTYDGDTEPEERAYIRKNARVIFTNPDMIHTSILPNHANWRHFLYHLKLVVVDELHIYKGLFGSHVALVMRRLLRLCHCFYENSGLQFISCSATLKSPVQHMKDMFGINEVTLIHEDGSPTGAKHLVVWNPPILPQHERKRENFIRESAKILVQLILNNVRTIAFCYVRRVCELLMKEVRNIFIETGREDLVTEVMSYRGGYSASDRRKIEREMFHGNLKAVISTNALELGIDIGGLDAVLMCGFPLSMANFHQQSGRAGRRNNDSLTLVVASDSPVDQHYVAHPESLLEVNNFESYQDLVLDFNNILILEGHIQCAAFELPINFERDKQYFTESHLRKICVERLHHNQDGYHASNRFLPWPSKCVSLRGGEEDQFAVVDITNGRNIIIEEIEASRTSFTLYDGGIFIHQGYPYLVKEFNPDERYAKVQRVDVDWVTNQRDFTDVDPQEIELIRSLRNSDVPVYFGKIKTTIIVFGFFKVDKYKRIIDAIETHNPPVIINSKGLWIDMPKYALEICQKKQLNVAGAIHGAQHAIMGMLPRFIVAGVDEIQTECKAPEKEFAERQTKRKRPARLIFYDSKGGKYGSGLCVKAFEHIDDIIESSLRRIEECPCSDGCPDCVAASFCKENSLVLSKPGAQVVLHCILGHSEDSFIDLIKDGPEPNMPEIKVETVIPVSEHVNFSDDFKIIDVRRATKDDTHTNEIIKKEI
protein production: failed

MRGRMTRSQLILAILAGLVISIDNMISIVAFSSLIYQGALEIYIPLVINILAISVIIISASYLFMSSPPYAIAQLQDEAAILYSAMGLVIIKSMPSSSTNEAIFITILFMLGVTTCLTGLSFYFVGKFRFGNIIRYLPYPVICGFMAATGWLVLSGTFALLTGKALHQNWLVFFHKEEILLWAPGFIAGIVVYIFKEKLGYRYALQLMFISLVILFYALFYIFNLEYLVDPTEGYVLGPFNQSHIDSLMKPEIWQMIHYPFSMTLLNYIGLVILVSFIALLLNASSYELIVNKQLDLNKELRIAGIGNVFSGLLGGMVGYLSLSASTVAKEYGGARIIGVMAFVPMLLILCFGAVVVECFPKMAIGCYLFYIAFCFLSEWLINTWRLLNLSEYLIVLLILVIAIVFNMITAVAIGTVISIFIFAFRYSKINPVKYLFSGADYNSSFERNPISQSILSTQGDEIQFLKLQGFLFFGSIYRLLQLIKSIQKARYIILDFELVYNIDSSRIILMKNLKLHAEKNNISFAICSLKPIVYHELMKTNLLQSKTNWLKVFTDQESALEWCEDQVIEKYTENINIEEVTLEKQLLYLGFSSELVAWISEKASIKPYNPDDIICHEGEESNSVYFIHRGRVTAFVGDKRVLVVGSGNVLGEIAIYTHKKRTATLKTNEKTIVYEIDLKSIQELSKNKPLLLVQFHVCMAKILANRLSVLNKRIKVFDSTAILQ
protein production: failed

MVNVFYEEAGALKVGSILTDNTTSLQIESAHGKRSKIKAALVLLRFENPPMHGFMQQAQEKAADIDVNFLWECCEENREFTGQELAGDYFGHTPDPLETAAILILLSQNPIYFHKKGVGRFKAAPPEILQAALASREKKRLAEEKQAGYVQQLMAFELPDTFRPLLDDLLYKPDKNTIEWKALETACDATRLSVPRLLERCGAIPSTHDYHYNQFLYEHFPEGIDTDAYPADFHLLDPEDLPVAGVKAFSIDDATTTEIDDAFSVTPLNFGSFRIGIHIATPALGVAPHSLLDKFAAKRLSTVYLPGRKITMLPESVIQHFTLGEAHHRPVLSLYLEVADDFTVTRTFSRIETIEVSTNLRLDSLERQFNEITLRENQTDYPFAHELRLLWNFSCKMEKLRGKDQDINSEKIDYSFIIDQDRVSVYERRRGAPIDKVVSELMIFANAEWGKQLADAGYAGIYRSQGNGKVKMSLSPAPHQGLGVSQYAWSSSPMRRYVDLINQRQLIALVSGNPPPYTREDDTLLIAMRDFEMAYATYAEFQRGMERYWCLRWLLQENISTSGAIVIKENMIKLDRLPLIVRIPSLPELAPGTLVAVGVSQIDLIDRSLNASFLGKSEG
protein production: failed

MGGKLVSFIRSRLEIVQNIAAEDEGCKKAYYCMGSPLFALNAERMENNLVTLSGGISINKQLQKKGKPGVNVSPAFINEHNPEAIFISSFLSRPLNEFYELCQKYGIHADAVKKRQVYAVPAAWDFGNPRWILGLLYITDKLHPGKLEHHHHHH
protein production: failed

MAHFSARLKLLSSNDGLSFGVDSRDQFRQSLYMAGGGSPLVPIRMSRLKFCARIFSSYSFPYKRKKIRDLDNTEKNLDIDEDNDEWDFDGDDDGLETDDHLSCFRGLVLDISYRPVNVVCWKRAICLEYMDKADVLEYYDQTVSSPTGSFYIPAVLRVPHLLQVVKRRRVKNSLSRKNILLRDDYTCQYCSSRENLTIDHVMPVSRGGEWTWQNLVAACSRCNSRKGQKTADEAHMKLLKVPKEPKDYDIVAIPLTNAAIRMLRSNKGMPEEWRQYLAKPLSET
protein production: failed

MINEQRLLNTFLELVQIDSETGNESTIQPILKEKFIALGLDVKEDEAAKHPKLGANNLVCTMNSTIEEGEVPKLYLTSHMDTVVPAINVKPIVKDDGYIYSDGTTILGADDKAGLAAMLEVLQVIKEQQIPHGQIQFVITVGEESGLIGAKELNSELLDADFGYAIDASADVGTTVVGAPTQMLISAKIIGKTAHASTPKEGVSAINIAAKAISRMKLGQVDEITTANIGKFHGGSATNIVADEVILEAEARSHDPERIKTQVKHMTDVFETTASELGGKAEVTVEQSYPGFKINDNEAVVKIAQESARNLGLSANTIISGGGSDGSIINTFGIPSVILGVGYEKIHTTNERMPIKSLNLLASQVLEIIKIVARQSK
protein production: not failed

MGYRNLQDCVFDLEARGDLVRIDVETDPNIEIGAIQRRVYQAGGPALLFTRVKGCRFPMLGNLFGTMARTKFIFRDTLDDIRRLVELKINPTAVLKNPKEYAGAPLAALRLLPRQVSRGPILGHRTTIAELPQLKSWPMDGGPFVTLPQVYSESPKRPGFRFSNLGMYRVQLAGNDYRLNEEVGVHYQIHRGIGVHHAEAIERGEPLRVNIFVGGAPSMTVAAVMPLPEGLPELSFAGLLAGHRLAMVCRRGELPMPAEADFVITGTIDPNKTLPEGPFGDHLGYYSLAHPFPVLRVENVWHRDDAIWPFTSVGRPPQEDTTFGAFIHELTGALIPEVLPGVKGVHAVDAAGVHPLLLAVGSERYVPYEAERVPRELLTIASAILGNGQLSLAKYLFITPNEDNPPDIHHIDEFLTFILERADWRRDLHFHTRTTIDTLDYSGSGLNEGSKVIVAAAGPKRRDLPTEVPGGLRLPDGFTTPHVCLPGILAVTGPAFPGYGDNGAPDMERFCASFAPDDPINRFPLVVIVDDSAFTSRTLNNFLWVTFTRSNPAADIHGIGSSVRCKHWGCGGALVIDARVKPHHAPPLLDVPEIERRVDALGAPGGPLRGII
protein production: failed

MHEKTKFRLHSHDVPYGSGSGQQSVTGFPGVVDSNSYWIVKPVPGTTEKQGDAVKSGATIRLQHMKTRKWLHSHLHASPISGNLEVSCFGDDTNSDTGDHWKLIIEGSGKTWKQDQRVRLQHIDTSGYLHSHDKKYQRIAGGQQEVCGIREKKADNIWLAAEGVYLPLNESSK
protein production: not failed

MSKEDAWNMVTIYPAKQLRVDEYVGSLTPGKMADIVLWNAEPLSIYAKVTHAWVEGKRYFDREQDQLAQLEHHHHHH
protein production: failed

MILINLFITFLKIGLLNFGGGNGIAAIINNEIINNKHWITKEEFVNMITISRITPGPIATNIATYVGMKTAGIAGAIIATVALITAPIIIMIIILLILHKIGFLNYCLENLKPIIVALWIITIIILLENTYLKIENNKTELLKTLAIVGINFFILFFYNKISPALVIILSGFFYTLI
protein production: failed

MDKRIDLTEGKITSNLIKLSIPIMATSFIQMAYNMADMIWVGRIGSNAVAAVGTAGFFPWLGMAFVMISKVGAEIKVAQSLGRNDIDSTKDYIKSAFQINIILAIIYSIILLLFNSQLIGFFDLGDAEVIKMAKTYLIAVALGMIFNFLNPVFTAVFTGSGDSRIPFIANTIGLIFNIVFDPILIFGIGIFPEMGVLGAALATVLAQVIVTVTFLYIMIKSKAEYLKINILSGIKINCMKTLFHIGLPAALQSGLFTVFSMFIGKIVAVFGPVPIAVQKVGSQVEAIAWMTAGGISTALSTFVGQNYGAGKLKRIVKGFNITMIISLIVGVFASLVLIFFGEEIFRIFIPEAQAIEQGTVYLKILGYCQILVCVEITTTGAFNGLGRTYIPSIISILLTGARIPMAYIMCKPEFLGLEGIWWAISITGALKGVVVYAIYRYLYKKNKLFKVYKDENGEECISI
protein production: failed

MSNGGLSIDEKEGLIDKDEVMIRRMKNRERQRRYRARKRMREEEAGNDDNLSFETMGKQEEEEEEDEGLEFNGPSGYVENFVRRVYCDRNWKKEARRAHLIMNKAQDSSCESVKRKIRPHRRDWKAEARKKKT
protein production: failed

MPGAVDFKERISRQRPHDRETYGHAGNTDLQDIVYQLESDRGRIVNSAAVRRLQQKTQVFPLERNAAVRSRLTHSLEVQQTGRFIVRTLFRQLGPRAAEVGLDGLEGALESLVEMACLMHDVGNPPFGHFGEYAINDWFERNLDALFERRIPPGQGDGLLQQRMLTDLKHFEGNAQAIRLVVKLLRLNLTYTQTAGLLKYVRPAYEPKPDKAAANHYLNKKPGFYLSEEAFVDELRRVLGMRPGTRHPVAYIMEAADDISYCLADIEDSVEKGILDIRQLADLLVKKFAVHHSPDAPIPGDADNMSFQRMVDYSLEKAEREPINKVSEFFIRLRVKMIHPLVQHAAQQFIDNFEAVHAGTLGRALMEDGSLPHAIVQTFKDVAMEWVFCHPEVETLELQGYRIIQGLLDFYAPLLRLPAEEFQALAEGRQAAAPHPQLLVRRLPSQQIKAYLEAMKGVAEDPLQRQWEFYHRCRMLQDFVSGMTDQHAQDEYRALSA
protein production: failed

MKVVVVDGGGLMGVETALCVRDHGHEVALVQAPGDPHAPLSDEVAEALRGCSVLVDLAHQPSVDIGTLAEDHGLVVDEAALVDSWAGSTGALLRAGAAAGVRHHVCLSVVGVDRIGREGVFRALRNREAMARRSGIPYSILRATQTFDAAEDIATAATEDWIVWVPPAEVRPVSLTDVATLLAHTAVTRPVNGVREIAGPEQFRLDAFVRTALLTEAEYRQVRTDALSPFYGARLRPRDLLPGPDAFIARTTYREWFTGRPAPDTTS
protein production: failed

MVTAAQPRSPSPSPSSTAAAGQVTRRVPAVRHLGPNWYACVMGTAIVGTAGAALPGHVAGLRAACTAVWALSLVLLVVLLTARSLHWLHHRDQARAHLLDPSAAPFYGCLSMALLAVGGGALALGRDWIGTPAAVALDTVLFTAGTVIGLAAAVAVPYLMAVRHRVEPGQASPVWLLPLVAPMVSAAVGPLLVPHLPAGQPRETLLLACVAMFGMSLFATLVTLPVVFGRLLTGGPLPLALTPSLFLVLGPLGQSTTAVGKFADVAPGVVPGPYAEGFAVFAVLYGVPVTGFALMWLALAAAHVVRARRAGMRFSMTWWSFTFPVGTCVTGAEALARETGLVVYDGLTVALYALLVAAWAVAAVHTARGLFSGVLLAGPRPAPGAPRPATARTT
protein production: failed

QNNYLQSLEVQVMLDTLRVIHNPLQDYALVALMKSPMFGFDEDELARLSLQKAEDKVHENLYEKLVNAQKMASSQKGLIHTALAEKLKQFMDILASWRLYAKTHSLYDLIWKIYNDRFYYDYVGALPNGPARQANLYALALRADQFEKSNFKGLSRFIRMIDQVLEAQ
protein production: failed
